Assay results from publication PMC4757414, “Evidences of Changes in Surface Electrostatic Charge Distribution during Stabilization of HPV16 Virus-Like Particles” (PLoS ONE, 2016).

Target: the molecule itself
Test: static light scattering; Debye plot (Zimm equation) of purified HPV16 VLPs in dilute solution, initial (0 h) and final (48 h) states; T = 298 K; 0.5 M NaCl, 50 mM sodium citrate, 1 mM CaCl2, pH 6

B1: HPV16 L1 protein (assembled into HPV16 virus-like particles) (natural protein)
chain: MSLWLPSEATVYLPPVPVSKVVSTDEYVARTNIYYHAGTSRLLAVGHPYFPIKKPNNNKILVPKVSGLQYRVFRIHLPDPNKFGFPDTSFYNPDTQRLVWACVGVEVGRGQPLGVGISGHPLLNKLDDTENASAYAANAGVDNRECISMDYKQTQLCLIGCKPPIGEHWGKGSPCTNVAVNPGDCPPLELINTVIQDGDMVDTGFGAMDFTTLQANKSEVPLDICTSICKYPDYIKMVSEPYGDSLFFYLRREQMFVRHLFNRAGAVGENVPDDLYIKGSGSTANLASSNYFPTPSGSMVTSDAQIFNKPYWLQRAQGHNNGICWGNQLFVTVVDTTRSTNMSLCAAISTSETTYKNTNFKEYLRHGEEYDLQFIFQLCKITLTADVMTYIHSMNSTILEDWNFGLQPPPGGTLEDTYRFVTSQAIACQKHTPPAPKEDPLKKYTFWEVNLKEKFSADLDQFPLGRKFLLQAGLKAKPKFTLGKRKATPTTSSTSTTAKRKKRKL
notes: major capsid protein L1 (~55 kDa) of human papillomavirus type 16; also called HPV L1; HPV16 VLPs; source: insect cells infected with HPV L1 expressing baculovirus, purified (chromatography and filtration, at least 95% purity); provided by Sino Biological, Inc
  binding result: binds
